Reference: patent US11780927B2, “Anti-CD40 antibodies for use in prevention of graft rejection” (NOVARTIS AG, priority 2018, dated 2023)
“And” between values parts separate entries of the source, which are not always exact repeats. Identical values can stand only once.

Assays:
RAJI B cells = experiment: Complement-dependent cytotoxicity with rabbit complement; assay type: cell-based; details: 2 hours
Experimental: (§1) See supplementary material for detailed methods. Briefly, the ability of CFZ533 to mediated depletion of CD20^pos B cells was monitored in human whole blood over a period of three days in comparison to the B cell depleting antibody Rituximab. For CDC, CFZ533 or Rituximab were incubated with RAJI B cells in the presence or absence of rabbit complement and cell lysis was assessed by luminescence.
(§2) B cells numbers were determined based on CD45pos and CD19pos events falling within lymphocyte FSC (forward-scattered light)/SSC (side-scattered light) gate. Results for individual antibody concentrations were calculated as percent remaining B cells with reference to untreated samples and graphed as a function of log-transformed antibody concentration (adjusted to 100% and shown as a dotted line). Data represent the mean and SD of eight independent donors. […] Concentration dependent killing of the Raji cells was analyzed after 2 hours, where the viability of the cells was measured by determination of the ATP concentration in each well using luciferase. Results are presented as isotype-control normalized relative luciferase units (RLU) as a function of log-transformed antibody concentration.

PBMCs = details: Rhesus
[1] = test system: life-supporting kidney allografts; experiment: NHP model of kidney allograft rejection; assay type: in vivo, cynomolgus monkeys (Macaca fascicularis)
CD20pos B cells = experiment: In vitro B cell depletion in human whole blood; assay type: cell-based; details: 72 hours; Rituximab 50 μg/ml, CFZ533 dose titration
Experimental: as §1, §2

[2] = molecular target: T1, CD40 on peripheral B cells (Homo sapiens, UniProt P25942); experiment: Single-ascending dose study in healthy subjects and rheumatoid arthritis patients; assay type: in vivo; details: for Safety and tolerability: single doses up to 3 mg/kg in healthy volunteers, 10 mg/kg in RA patients
T1 construct: CD40 occupancy on peripheral B cells measuring free CD40 and total CD40; endogenous in cells; host or cells: peripheral / whole blood B cells of healthy subjects and rheumatoid arthritis patients dosed with CFZ533
T1 sequence (P25942 21-277): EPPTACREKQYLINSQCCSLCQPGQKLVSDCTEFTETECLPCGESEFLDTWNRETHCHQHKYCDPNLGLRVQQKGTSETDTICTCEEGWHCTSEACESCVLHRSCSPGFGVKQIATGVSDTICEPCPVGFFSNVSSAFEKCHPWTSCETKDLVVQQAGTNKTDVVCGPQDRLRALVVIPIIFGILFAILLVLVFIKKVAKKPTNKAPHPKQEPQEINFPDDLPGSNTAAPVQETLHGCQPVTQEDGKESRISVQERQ
Experimental: The safety, tolerability, PK and PD activity of mAb1 are being assessed in an ongoing, randomized, double-blind, placebo-controlled, single-ascending dose study of mAb1 in healthy subjects and patients with rheumatoid arthritis (RA). A total of 48 subjects have been enrolled: 36 healthy subjects who received single doses of mAb1 up to 3 mg/kg IV or S.C., and 12 patients with RA, 6 of whom received single doses of mAb1 at 10 mg/kg IV. […] An investigation of the 30 mg/kg IV dose is ongoing in RA patients. As this study is still ongoing, all clinical data are preliminary in nature and based on interim analyses conducted up to a dose of 10 mg/kg in RA patients. […]

[3] = 26-week chronic toxicity study
[4] = 13-week GLP toxicity study
human B cell line RI-1 = experiment: Internalization by image flow cytometry; assay type: cell-based; details: 3 hours at 37° C.
Experimental: Internalization of fluorescently tagged CFZ533 and rCD154 was assessed in vitro using the human B cell line RI-1 (Th'ng et al, 1987). CD40 dependence of CFZ533 internalization was assessed using a CD40 knockout RI-1 cell line. Internalization was assessed using an Amnis® image flow cytometer (Merck KHaA, Darnstadt) according to the manufacturer's instructions and data analyzed using ImageStream®^X software.
FIG. 8B. Relative internalization erode of CFZ533 and rCD154 under permissive conditions (non-permissive erode values subtracted). Each dot represents data from an individual experiment and the population mean is indicated as a horizontal red line. FIG. 8C. Representative images of individual CD40 expressing or CD40 knock-out RI-1 cells cultured with Alexa488 labeled CFZ533 for 3 hours at 37° C. In all experiments, cells were co-stained with AlexaFlour 647 labeled CD45 to demark the cell membrane.

platelet aggregation = experiment: Platelet function and blood hemostasis; assay type: cell-based
[5] = cynomolgus monkey, in vivo
Single dose PK/PD study = assay type: in vivo, cynomolgus monkeys
Experimental: Single dose pharmacokinetic/pharmacodynamic (PK/PD) studies utilized biologics-treatment naive cynomolgus monkeys (Macaca fascicularis) between 7.5-8.5 years old (6.5±2.6 kg) and captive-bred from Philippines (Siconbrec, Makati City, Philippines). Animal handling, care, drug treatments and blood sampling are performed according to the Swiss Federal Law for animal protection (animal licenses BS #1900, BS #1495). For the recall immunization experiments, we utilized animals from a toxicology study conducted at Covance Laboratories GmbH, Muenster, Germany, (manuscript in preparation). The study was performed according to an authorized study protocol and local standard operating procedures in strict compliance with national legal regulations on animal welfare law and accepted animal welfare standards.
In the PK study, CFZ533 was administered to three animals at calculated single doses of 16.2 (5532), 18.5 (5531) and 20 (5530) mg/kg. […] KLH specific IgM/IgG titers were determined with sandwich ELISA using cynomolgus monkey anti-KLH IgM/IgG reference serum as standard. […]
FIG. 9A. Serum concentrations of CFZ533 in three cynomolgus monkeys after single dose administration at calculated doses of 16.2 (5532), 18.5 (5531) and 20 (5530) mg/kg intravenously. […]

CFZ533: human anti-CD40 IgG1 monoclonal antibody with Fc-silencing N297A mutation; heavy chain SEQ ID NO: 9, light chain SEQ ID NO: 10
Complement-dependent cytotoxicity (CDC) of Raji B cells (RAJI B cells): unable to mediate complement-dependent cytotoxicity | Inhibition of rCD154-induced proliferation (IC50 PBMCs) (PBMCs): 0.03 µg/mL and 0.026 ± 0.017 µg/mL | Days after Transplantation (median days) ([1]; CFZ533 30 mg/kg i.v. monotherapy, n 5): 95 days | Survival of kidney allografts and graft morphology ([1]; combination with CsA (20 mg/kg p.o.) or monotherapy): demonstrated efficacy in increasing the survival of kidney allografts in NHPs | B cells eliminated in human whole blood (CD20pos B cells): failed to mediate any cell depletion | duration of full CD40 occupancy ([2]; 1 mg/kg IV): 1 week | duration of target engagement (full CD40 occupancy on B cells) ([2]; 3 mg/kg IV, healthy subjects): about 4 weeks | duration of target engagement (full CD40 occupancy on B cells) ([2]; 3 mg/kg SC, healthy subjects): about 4 weeks | time of peak plasma concentration ([2]; 3 mg/kg SC, healthy subjects): 3 days | duration of full CD40 occupancy ([2]; 10 mg/kg IV, rheumatoid arthritis patients): 8 weeks | duration of target engagement ([2]; 30 mg/kg IV, rheumatoid arthritis patients): 16 weeks | decrease in total CD40 on peripheral B cells ([2]; healthy subjects): about 50% | ADA incidence ([2]; human, in vivo): 2% | plasma concentration associated with full (≥90%) CD40 occupancy on whole blood B cells ([2]; human, in vivo): 0.3 to 0.4 µg/mL | duration of suppression of anti-KLH responses (full receptor occupancy) ([2]; single dose of 3 mg/kg (IV and SC)): 3-4 weeks | Safety and tolerability [2]: did not reveal major safety concern | Safety and tolerability ([2]; listed as mAb1): safe and well tolerated | serum concentration with incomplete or no suppression of GCs ([3]; 1 mg/kg/week subcutaneously, 26 weeks): below 20 μg/mL | NOAEL ([3]; 26-week, cynomolgus monkeys): 150 mg/kg | Cmax,ss at NOAEL versus expected human Cmax ([3]; proposed intravenous regimen): 24 fold | Increased lymphoid cellularity ([4]; weekly dosing at 10, 50 and 150 mg/kg): 5/22 | No Observed Adverse Effect Level (NOAEL) ([4]; weekly dosing, rhesus monkey): 10 mg/kg | Internalization by RI-1 B cells (human B cell line RI-1): internalized | Platelet aggregation responses (platelet aggregation): does not induce platelet aggregation responses | average concentration at steady state (Cav,ss) ([5]; 150 mg/kg): 8300 µg/mL | systemic exposure (AUC, steady state conditions) over a 1-month period ([5]; 150 mg/kg): 232400 µg·days/mL | Cmax,ss (mean, all animals) ([5]; sc, 50 mg/kg): 3235 µg/mL | inflection point in PK profiles (drop of CD40 saturation) (Single dose PK/PD study; serum concentration-time profiles, non-human primates): 10 to 20 µg/mL | Depletion of peripheral blood B cells (Single dose PK/PD study; single intravenous dose 16.2, 18.5 and 20 mg/kg): did not deplete peripheral blood B cells
